Reference: US20210379147A1, “METHOD AND SYSTEM FOR TREATING CANCER UTILIZING TINAGL1” (The Trustees of Princeton University, priority 2018, published 2021)

Columns and labels:
EGFR = EGFR (Homo sapiens, UniProt P00533); assay: Co-immunoprecipitation of Tinagl1 / Tinagl1 mutants with EGFR; format: binding; settings: LM2 cells with Tinagl1-HA stably expressed
Procedure: (§1) The functional domains of the Tinagl1 protein were mapped against EGFR, Integrin β1, and Integrin α5, and the results can be seen in Table 1, below. Specifically, it can be seen that the signal peptide (11) and Somatomedin B domain (12) are required to interact with EGFR, Integrin, and Integrin.
(§2) Immunoprecipitation (IP) and western blotting (WB) analysis. For an IP experiment, cells were collected in 1.5 ml EP tube when they reached to 100% confluency in 10 or 15 cm dish as indicated. 1 ml of IP lysis buffer (20 mM Tris pH7.4, 0.15 M NaCl, 1 mM EDTA, 1 mM EGTA, 1% Tx-100) with complete protease inhibitor cocktail (Roche, 14493900) was added and put on ice for 20 min. Meanwhile, culture media was 100× concentrated and mixed with the cell lysates. The samples were centrifuged, 100 μl of the supernatant was transferred to a new tube as input, and the rest was incubated with 2 μg of IgG, anti-HA, anti-Myc, anti-Integrin subunit β1, anti-Integrin subunit α5 or anti-EGFR (as indicated in each experiment) overnight at 4° C. (recombinant proteins may be added at this step as indicated in each experiment). 30 μL of protein A/G agarose beads (Santa Cruz, sc-2003) was then added in each sample for another 2 hours at 4° C. the next day. The beads were then washed for 5 times with IP lysis buffer. […] The IP samples were washed with PBS and analyzed with WB. […]

Integrin β1 = Integrin β1 (Homo sapiens, UniProt P05556); assay: Co-immunoprecipitation of Tinagl1 / Tinagl1 mutants with integrin β1 subunit; format: binding; settings: LM2 cells with Tinagl1-HA stably expressed
Procedure: as §1, §2

Integrin α5 = Integrin α5 (Homo sapiens, UniProt P05556+P08648); assay: Co-immunoprecipitation of Tinagl1 / Tinagl1 mutants with integrin α5 subunit; format: binding; settings: LM2 cells expressing Tinagl1-HA
Procedure: as §1, §2

integrin av subunit = biological target: T1, integrin av subunit (Homo sapiens, UniProt P05556+P06756); assay: Co-immunoprecipitation of Tinagl1 with integrin av subunit; format: binding; settings: LM2 cells expressing Tinagl1-HA
T1 construct: endogenous in cells; host or cells: LM2 cells stably expressing Tinagl1-HA
Procedure: FIGS. 9A and 9B FIGS. 8E and 8F are images of WB analyses where LM2 cells expressing Tinagl1-HA stably were lysed and IP with IgG or anti-HA antibodies, then the IP samples were subjected to WB analysis with indicated antibodies to detect the interaction with integrin α5 subunit (9A) and integrin av subunit (9B).
as §2

FAK = assay: FN- or EGF-dependent FAK phosphorylation (WB); format: cell-based
Text: For WB analysis, cells were collected and lysed with IP lysis buffer described above. After boiled with SDS laemmli buffer, the samples were resolved with SDS-PAGE gel and immunoblotted with standard protocols.
FN is the major ligand for integrin α5β1 and αvβ1, and triggers integrin/FAK signal pathway after binding. FN was employed to evaluate the effects of Tinagl1 on the integrin/FAK pathway. […] Likewise, the activation of FAK by FN was attenuated in the cells overexpressing Tinagl1.

EGF = biological target: T2, EGF (Homo sapiens, UniProt P01133); assay: Co-immunoprecipitation of Tinagl1-HA with recombinant EGF; format: binding; settings: 5 μg r-EGF added into lysate
T2 construct: 5 μg of recombinant EGF (r-EGF) was added into the lysate
Procedure: FIG. 13A is an image of IP and WB assays where EK293T cells expressing Tinagl1-HA were lysed and 5 μg of recombinant EGF (r-EGF) was added into the lysate, which was then subjected to the assays.
Tinagl1 inhibits EGFR and integrin/FAK signaling pathways with distinct mechanisms. The interaction between EGFR and EGF causes conformational changes in EGFR, leading to EGFR dimerization, phosphorylation, and activation. Previous studies identified an EGFR antagonist, MIF, which competes with EGF for binding to EGFR and subsequently blocks its activation. Whether Tinagl1 inhibits EGFR activation in a similar manner was tested. […] Whether Tinagl1 and EGF compete with each other to interact with EGFR was tested. […] As a positive control, r-Tinagl1 competed with expressed Tinagl1-HA to interact with EGFR.

[1] = tested on: FN interaction with integrin subunits β1, α5, and αv; assay: Competition IP between Tinagl1, FN and integrin subunits; format: binding
FN = FN (Homo sapiens, UniProt P02751); assay: IP of Tinagl1-HA with FN; format: binding; settings: IP-Mass, IP/WB
Procedure: FIG. 15B is an image of WB analyses where 5 μg of FN was added into the lysate of HEK293T cells expressing Tinagl1-HA, then the lysate was immunoprecipitated with indicated antibodies, followed by WB analysis.

[2] = biological target: T3, mutant integrin β1 subunit (β1-M) (Homo sapiens, UniProt P05556, DEL130-240); assay: IP of Tinagl1-HA with mutant integrin β1 subunit; format: binding; settings: HEK293T cells
T3 construct: host or cells: HEK293T
T3 sequence (P05556 with tags, fused parts or gaps DEL130-240): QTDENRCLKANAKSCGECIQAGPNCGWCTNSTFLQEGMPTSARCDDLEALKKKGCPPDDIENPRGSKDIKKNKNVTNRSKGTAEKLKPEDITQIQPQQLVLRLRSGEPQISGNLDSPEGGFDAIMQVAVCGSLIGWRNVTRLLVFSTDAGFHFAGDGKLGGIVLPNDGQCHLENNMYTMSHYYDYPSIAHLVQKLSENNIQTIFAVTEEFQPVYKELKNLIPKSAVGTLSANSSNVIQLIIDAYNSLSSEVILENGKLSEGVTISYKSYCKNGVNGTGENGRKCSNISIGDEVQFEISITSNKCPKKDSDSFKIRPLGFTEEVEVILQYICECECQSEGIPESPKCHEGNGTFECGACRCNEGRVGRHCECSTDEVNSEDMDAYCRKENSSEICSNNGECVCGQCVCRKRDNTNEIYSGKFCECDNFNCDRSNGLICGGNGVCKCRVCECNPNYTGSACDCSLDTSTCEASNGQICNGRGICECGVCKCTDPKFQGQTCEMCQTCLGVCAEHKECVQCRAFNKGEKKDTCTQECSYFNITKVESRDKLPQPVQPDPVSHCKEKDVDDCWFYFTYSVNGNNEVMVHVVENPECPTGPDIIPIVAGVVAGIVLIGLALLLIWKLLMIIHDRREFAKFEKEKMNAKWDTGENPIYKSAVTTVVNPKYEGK

FN interaction with integrin subunits β1, α5, and αv, sequence (as listed by the source): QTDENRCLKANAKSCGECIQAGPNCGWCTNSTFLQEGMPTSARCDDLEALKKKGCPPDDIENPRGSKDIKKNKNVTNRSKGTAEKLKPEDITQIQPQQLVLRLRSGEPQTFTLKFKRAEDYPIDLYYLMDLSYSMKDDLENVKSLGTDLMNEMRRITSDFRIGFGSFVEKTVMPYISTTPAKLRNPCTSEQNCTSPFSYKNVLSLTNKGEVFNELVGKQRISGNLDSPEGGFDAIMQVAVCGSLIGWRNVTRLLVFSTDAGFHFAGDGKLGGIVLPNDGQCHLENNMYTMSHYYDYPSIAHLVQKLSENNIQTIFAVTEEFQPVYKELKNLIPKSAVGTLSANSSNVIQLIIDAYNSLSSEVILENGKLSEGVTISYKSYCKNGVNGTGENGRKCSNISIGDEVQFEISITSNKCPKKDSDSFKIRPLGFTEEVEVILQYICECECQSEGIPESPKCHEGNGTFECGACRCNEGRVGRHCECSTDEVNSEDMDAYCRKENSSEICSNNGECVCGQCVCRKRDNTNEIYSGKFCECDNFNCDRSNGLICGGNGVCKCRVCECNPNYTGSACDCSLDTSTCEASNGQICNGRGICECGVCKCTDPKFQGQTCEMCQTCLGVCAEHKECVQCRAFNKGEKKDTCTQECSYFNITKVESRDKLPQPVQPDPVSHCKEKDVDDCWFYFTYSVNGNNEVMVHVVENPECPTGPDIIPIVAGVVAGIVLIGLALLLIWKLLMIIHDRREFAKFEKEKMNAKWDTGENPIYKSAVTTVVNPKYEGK
FN, sequence (P02751 32-2477): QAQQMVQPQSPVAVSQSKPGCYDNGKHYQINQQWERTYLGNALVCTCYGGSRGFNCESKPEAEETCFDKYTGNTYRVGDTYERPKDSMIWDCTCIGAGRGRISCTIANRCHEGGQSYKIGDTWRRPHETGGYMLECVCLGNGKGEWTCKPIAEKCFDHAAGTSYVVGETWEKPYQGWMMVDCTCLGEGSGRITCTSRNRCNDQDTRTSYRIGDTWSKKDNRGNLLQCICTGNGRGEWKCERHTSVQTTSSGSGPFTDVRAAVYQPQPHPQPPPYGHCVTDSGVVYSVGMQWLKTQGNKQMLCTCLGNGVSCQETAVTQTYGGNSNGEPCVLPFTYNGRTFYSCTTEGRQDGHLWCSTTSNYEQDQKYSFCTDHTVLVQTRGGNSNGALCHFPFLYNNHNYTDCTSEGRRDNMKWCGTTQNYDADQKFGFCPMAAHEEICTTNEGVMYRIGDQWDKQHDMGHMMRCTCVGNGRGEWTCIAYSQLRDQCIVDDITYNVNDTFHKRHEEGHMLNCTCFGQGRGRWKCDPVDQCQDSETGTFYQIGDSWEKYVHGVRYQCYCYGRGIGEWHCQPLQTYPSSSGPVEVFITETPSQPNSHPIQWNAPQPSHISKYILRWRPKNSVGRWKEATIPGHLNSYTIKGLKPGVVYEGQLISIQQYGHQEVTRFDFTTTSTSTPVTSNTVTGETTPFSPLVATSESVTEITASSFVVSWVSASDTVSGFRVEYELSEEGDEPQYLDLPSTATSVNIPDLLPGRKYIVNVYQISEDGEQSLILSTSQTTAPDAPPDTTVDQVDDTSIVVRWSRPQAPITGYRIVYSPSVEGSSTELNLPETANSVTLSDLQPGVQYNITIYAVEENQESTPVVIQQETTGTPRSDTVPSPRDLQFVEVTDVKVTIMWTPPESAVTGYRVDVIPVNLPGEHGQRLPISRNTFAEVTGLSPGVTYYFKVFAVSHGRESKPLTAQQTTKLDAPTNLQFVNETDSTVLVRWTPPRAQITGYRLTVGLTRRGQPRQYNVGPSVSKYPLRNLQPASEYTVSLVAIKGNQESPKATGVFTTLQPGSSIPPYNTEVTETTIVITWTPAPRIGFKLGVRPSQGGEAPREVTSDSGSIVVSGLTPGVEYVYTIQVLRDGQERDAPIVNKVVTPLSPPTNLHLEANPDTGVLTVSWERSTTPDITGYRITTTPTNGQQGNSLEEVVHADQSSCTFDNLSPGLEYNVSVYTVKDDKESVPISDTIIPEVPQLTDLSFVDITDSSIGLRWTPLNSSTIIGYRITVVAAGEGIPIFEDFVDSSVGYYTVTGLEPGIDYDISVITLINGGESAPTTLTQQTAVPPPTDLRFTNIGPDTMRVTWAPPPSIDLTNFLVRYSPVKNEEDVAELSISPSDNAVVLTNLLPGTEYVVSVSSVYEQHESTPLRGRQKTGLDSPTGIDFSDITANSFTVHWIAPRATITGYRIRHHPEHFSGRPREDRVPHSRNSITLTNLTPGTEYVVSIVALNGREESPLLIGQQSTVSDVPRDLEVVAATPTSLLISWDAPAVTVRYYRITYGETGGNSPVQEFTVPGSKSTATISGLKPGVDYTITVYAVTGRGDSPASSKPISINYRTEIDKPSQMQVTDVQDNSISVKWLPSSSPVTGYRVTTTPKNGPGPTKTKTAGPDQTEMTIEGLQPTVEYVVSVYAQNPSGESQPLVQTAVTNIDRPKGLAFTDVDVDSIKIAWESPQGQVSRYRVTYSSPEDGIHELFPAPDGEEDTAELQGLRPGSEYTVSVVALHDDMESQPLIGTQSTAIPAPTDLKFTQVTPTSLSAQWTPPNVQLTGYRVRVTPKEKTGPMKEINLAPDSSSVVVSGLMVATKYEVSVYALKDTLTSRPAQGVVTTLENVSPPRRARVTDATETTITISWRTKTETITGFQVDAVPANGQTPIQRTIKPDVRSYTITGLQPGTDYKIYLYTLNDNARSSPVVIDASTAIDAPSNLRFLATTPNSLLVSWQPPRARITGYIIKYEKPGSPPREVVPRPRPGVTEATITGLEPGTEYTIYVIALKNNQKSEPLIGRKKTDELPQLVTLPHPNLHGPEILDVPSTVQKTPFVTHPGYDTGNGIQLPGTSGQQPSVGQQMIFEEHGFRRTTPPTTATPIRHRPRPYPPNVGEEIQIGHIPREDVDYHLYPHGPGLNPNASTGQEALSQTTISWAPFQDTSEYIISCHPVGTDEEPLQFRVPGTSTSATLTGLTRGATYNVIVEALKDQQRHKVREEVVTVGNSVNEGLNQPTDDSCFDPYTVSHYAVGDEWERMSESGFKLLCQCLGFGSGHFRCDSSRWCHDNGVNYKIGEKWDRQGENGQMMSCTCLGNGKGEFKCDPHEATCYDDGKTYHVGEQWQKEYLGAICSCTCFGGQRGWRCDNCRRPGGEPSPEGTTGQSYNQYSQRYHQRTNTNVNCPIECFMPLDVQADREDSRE
T1 sequence (P06756 31-889 limits assumed): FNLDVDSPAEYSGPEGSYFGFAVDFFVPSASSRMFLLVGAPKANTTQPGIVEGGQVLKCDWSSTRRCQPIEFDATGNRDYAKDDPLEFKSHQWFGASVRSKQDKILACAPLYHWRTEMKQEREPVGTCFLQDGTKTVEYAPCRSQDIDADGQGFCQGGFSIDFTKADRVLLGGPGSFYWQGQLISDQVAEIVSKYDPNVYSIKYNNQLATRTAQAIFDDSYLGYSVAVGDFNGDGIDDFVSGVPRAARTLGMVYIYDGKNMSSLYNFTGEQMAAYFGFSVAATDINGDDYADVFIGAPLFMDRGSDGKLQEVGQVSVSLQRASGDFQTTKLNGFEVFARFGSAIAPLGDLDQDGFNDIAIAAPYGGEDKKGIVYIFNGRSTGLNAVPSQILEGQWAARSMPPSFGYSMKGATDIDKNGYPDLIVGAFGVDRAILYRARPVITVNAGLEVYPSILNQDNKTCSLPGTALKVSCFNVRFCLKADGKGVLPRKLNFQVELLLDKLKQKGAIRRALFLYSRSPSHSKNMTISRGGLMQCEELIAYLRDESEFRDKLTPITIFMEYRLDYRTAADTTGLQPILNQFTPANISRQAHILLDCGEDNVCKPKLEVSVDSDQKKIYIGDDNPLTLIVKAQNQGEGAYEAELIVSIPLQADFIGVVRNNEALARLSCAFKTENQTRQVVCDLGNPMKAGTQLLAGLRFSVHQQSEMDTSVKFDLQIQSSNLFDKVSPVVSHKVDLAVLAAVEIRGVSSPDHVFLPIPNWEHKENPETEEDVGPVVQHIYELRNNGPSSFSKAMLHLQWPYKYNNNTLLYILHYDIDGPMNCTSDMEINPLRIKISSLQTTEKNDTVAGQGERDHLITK
T1 sequence (P06756 891-1048 limits assumed): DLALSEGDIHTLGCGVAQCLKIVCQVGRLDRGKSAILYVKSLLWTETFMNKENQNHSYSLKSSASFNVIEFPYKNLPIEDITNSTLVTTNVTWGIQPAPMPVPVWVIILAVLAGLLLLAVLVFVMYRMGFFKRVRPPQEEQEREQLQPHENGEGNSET
T1 sequence (P05556 21-798): as the sequence (as listed by the source) above
T2 sequence (P01133 971-1023 limits assumed, species assumed): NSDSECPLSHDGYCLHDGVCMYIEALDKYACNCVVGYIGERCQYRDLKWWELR

B1: Tinagl1: Tubulointerstitial nephritis antigen like 1, secreted extracellular protein; in IP experiments expressed with C-terminal HA tag (protein, listed as Homo sapiens)
chain: MWRCPLGLLLLLPLAGHLALGAQQGRGRRELAPGLHLRGIRDAGGRYCQEQDLCCRGRADDCALPYLGAICYCDLFCNRTVSDCCPDFWDFCLGVPPPFPPIQGCMHGGRIYPVLGTYWDNCNRCTCQENRQWQCDQEPCLVDPDMIKAINQGNYGWQAGNHSAFWGMTLDEGIRYRLGTIRPSSSVMNMHEIYTVLNPGEVLPTAFEASEKWPNLIHEPLDQGNCAGSWAFSTAAVASDRVSIHSLGHMTPVLSPQNLLSCDTHQQQGCRGGRLDGAWWFLRRRGVVSDHCYPFSGRERDEAGPAPPCMMHSRAMGRGKRQATAHCPNSYVNNNDIYQVTPVYRLGSNDKEIMKELMENGPVQALMEVHEDFFLYKGGIYSHTPVSLGRPERYRRHGTHSVKITGWGEETLPDGRTLKYWTAANSWGPAWGERGHFRIVRGVNECDIESFVLGVWGRVGMEDMGHH
modifications: C-terminal HA tag in IP
notes: Tubulointerstitial nephritis antigen like 1, secreted extracellular protein; in IP experiments expressed with C-terminal HA tag
interaction with EGFR (co-IP) (EGFR): confirmed the interaction
interaction with integrin β1 subunit (co-IP) (Integrin β1): confirmed the interaction
interaction with integrin α5 subunit (co-IP) (Integrin α5): strongly interacted
interaction with integrin av subunit (co-IP) (integrin av subunit): strongly interacted
EGF-induced FAK phosphorylation (Tyr925) (FAK): blocks this specific effect of EGF on FAK activation
interaction between Tinagl1 and EGF (EGF): failed to detect any interaction
interaction of subunits α5 or av with FN [1]: did not compete
interaction of FN with integrin β1 subunit ([1]; tested at 1, 2.5, and 5 μg): competitively reduced
interaction with FN (FN): interacted with FN
interaction with mutant β1 subunit (deletion of aa 130-240) [2]: cannot interact
